According to patent US20100316645A1 (Hoffmann-La Roche, published 2010):

B1: bispecific tetravalent antibody recognizing Ang-2 and VEGF-A of Example 1 (<VEGF> VH-CL fused via (G4S)4-connector to the C-terminus of the <Ang-2> heavy chain) (bispecific antibody, human IgG1, kappa)
heavy: not shown
light: QPGLTQPPSVSVAPGQTARITCGGNNIGSKSVHWYQQKPGQAPVLVVYDDSDRPSGIPERFSGSNSGNTATLTISRVEAGDEADYYCQVWDSSSDHYVFGTGTKVTVLRTVAAPSVFIFPPSDEQLKSGTASVVCLLNNFYPREAKVQWKVDNALQSGNSQESVTEQDSKDSTYSLSSTLTLSKADYEKHKVYACEVTHQGLSSPVTKSFNRGEC
chain: DIQMTQSPSSLSASVGDRVTITCSASQDISNYLNWYQQKPGKAPKVLIYFTSSLHSGVPSRFSGSGSGTDFTLTISSLQPEDFATYYCQQYSTVPWTFGQGTKVEIKSSASTKGPSVFPLAPSSKSTSGGTAALGCLVKDYFPEPVTVSWNSGALTSGVHTFPAVLQSSGLYSLSSVVTVPSSSLGTQTYICNVNHKPSNTKVDKKVEPKSC
notes: Tetravalent, expressed in HEK293F from three plasmids; also called bispecific tetravalent <VEGF-Ang-2> antibody; <Ang-2, VEGF> bispecific tetravalent antibody
B2: bispecific tetravalent antibody recognizing Ang-2 and VEGF-A of Example 3 (<Ang-2> VH-CH1 fused via (G4S)4-connector to the C-terminus of the heavy chain of a … (bispecific antibody)
heavy: not shown
light: B1 light
chain: B1 chain
notes: as for B1
B3: bispecific tetravalent antibody recognizing Ang-2 and VEGF-A of Example 2 (<VEGF> VH-CL fused via (G4S)4-connector to the N-terminus of the <Ang-2> heavy chain) (bispecific antibody, human IgG1, kappa)
heavy: not shown
light: B1 light
chain: B1 chain
notes: as for B1

Target: T1, recombinant human VEGF165 (full-length VEGF165-His protein, R&D Systems; rhVEGF, R&D Systems Cat.-No. 293-VE) (human, UniProt P15692-4 27-191)
T1 construct: The ELISA method names 'full-length VEGF165-His protein', and the Biacore method names rhVEGF (R&D 293-VE); also called VEGF-A
Assay: ELISA and Biacore (SPR), including simultaneous binding (bridging ELISA, SPR sandwich)
Protocol: Unbound Streptavidin-POD conjugate is washed away with three-six times 300 μl PBST (0.2% Tween 20) and bound Strepatavidin-POD conjugate is detected by addition of 100 μL ABTS/well. Determination of absorbance is performed on a Tecan Fluor Spectrometer at a measurement wavelength of 405 nm (reference wavelength 492 nm).
In order to further corroborate the data from the bridging ELISA an additional assay is established to confirm simultaneous binding to VEGF and Ang-2 using surface plasmon resonance technology on a Biacore T100 instrument according to the following protocol and analyzed using the T100 software package (T100 Control, Version 2.01, T100 Evaluation, Version 2.01, T100 Kinetics Summary, Version 1.01): Ang-2 is captured with a capture level of 2000-1700 RU in PBS, 0.005% (v/v) Tween20 running buffer via a PentaHisAntibody (PentaHis-Ab BSA-free, Qiagen No. 34660) that is immobilized on a CM5 chip via amine coupling (BSA-free). HBS-N buffer served as running buffer during coupling, activation is done by mixture of EDC/NHS. The PentaHis-Ab BSA-free Capture-Antibody is diluted in coupling buffer NaAc, pH 4.5, c=30 μg/mL, finally still activated carboxyl groups are blocked by injection of 1 M Ethanolamine; ligand densities of 5000 and 17000 RU are tested. Ang-2 with a concentration of 500 nM is captured by the PentaHis-Ab at a flow of 5 μL/min diluted with running buffer+1 mg/mL BSA. […] For this sake, the bispecific tetravalent <VEGF-Ang-2> antibody is bound to Ang-2 at a flow of 50 μL/min and a concentration of 100 nM, diluted with running buffer+1 mg/mL BSA and simultaneous binding is detected by incubation with VEGF (rhVEGF, R&D-Systems Cat.-No, 293-VE) in PBS+0.005% (v/v) Tween20 running buffer at a flow of 50 μL/min and a VEGF concentration of 150 nM. Association time 120 sec, dissociation time 1200 sec. Regeneration is done after each cycle at a flow of 50 μL/min with 2×10 mM Glycin pH 2.0 and a contact time of 60 sec. […] Blanks for each Ab are measured with rhVEGF concentration “0”.

T1 sequence (P15692 other isoform, or with tags, fused parts or gaps limits assumed): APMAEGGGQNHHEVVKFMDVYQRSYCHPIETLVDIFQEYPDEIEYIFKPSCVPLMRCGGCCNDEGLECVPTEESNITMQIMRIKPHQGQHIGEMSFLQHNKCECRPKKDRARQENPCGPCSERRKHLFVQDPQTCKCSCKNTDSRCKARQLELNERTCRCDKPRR

binding result | Binder
binds | B1
binds | B2
binds | B3
